The record followed here is PMC1635277.

Common to all, as to test: purified protein
Common to all, as to conditions: 20 mM Tris-HCl pH 8.5, 50 mM NaCl, 100 µg/ml BSA, 37°C

Data set [1] deals with Nc1nc2c(ncn2[C@@H]2O[C@H](COP(=O)(O)O[C@H]3[C@@H](O)[C@H](n4ccc(=O)[nH]c4=O)O[C@@H]3CO)[C@@H](OP(=O)(O)OC[C@H]3O[C@@H](n4ccc(=O)[nH]c4=O)[C@H](O)[C@@H]3OP(=O)(O)OC[C@H]3O[C@@H](n4cnc5c(N)ncnc54)[C@H](O)[C@@H]3O)[C@H]2O)c(=O)[nH]1.
Data set [2] concerns Nc1nc2c(ncn2[C@@H]2O[C@H](CO)[C@@H](OP(=O)(O)OC[C@H]3O[C@@H](n4ccc(=O)[nH]c4=O)[C@H](O)[C@@H]3OP(=O)(O)OC[C@H]3O[C@@H](n4cnc5c(N)ncnc54)[C@H](O)[C@@H]3O)[C@H]2O)c(=O)[nH]1.
Data set [3] has as its system Nc1nc2c(ncn2[C@@H]2O[C@H](COP(=O)(O)O[C@H]3[C@@H](O)[C@H](n4ccc(=O)[nH]c4=O)O[C@@H]3CO)[C@@H](OP(=O)(O)OC[C@H]3O[C@@H](n4ccc(=O)[nH]c4=O)[C@H](O)[C@@H]3OP(=O)(O)O)[C@H]2O)c(=O)[nH]1.
For data set [4], the system named is Nc1nc2c(ncn2[C@@H]2O[C@H](COP(=O)(O)O[C@H]3[C@@H](O)[C@H](n4ccc(=O)[nH]c4=O)O[C@@H]3CO)[C@@H](OP(=O)(O)OC[C@H]3O[C@@H](n4ccc(=O)[nH]c4=O)[C@H](O)[C@@H]3O)[C@H]2O)c(=O)[nH]1.
Data set [5] relates to Nc1nc2c(ncn2[C@@H]2O[C@H](COP(=O)(O)O[C@H]3[C@@H](O)[C@H](n4cnc5c(N)ncnc54)O[C@@H]3CO)[C@@H](OP(=O)(O)OC[C@H]3O[C@@H](n4ccc(=O)[nH]c4=O)[C@H](O)[C@@H]3OP(=O)(O)OC[C@H]3O[C@@H](n4cnc5c(N)ncnc54)[C@H](O)[C@@H]3O)[C@H]2O)c(=O)[nH]1.
Data set [6] concerns Nc1nc2c(ncn2[C@@H]2O[C@H](CO)[C@@H](OP(=O)(O)OC[C@H]3O[C@@H](n4ccc(=O)[nH]c4=O)[C@H](O)[C@@H]3OP(=O)(O)O)[C@H]2O)c(=O)[nH]1.

With “E5-CRD (colicin E5 C-terminal ribonuclease domain) (Escherichia coli)”, the Km in data set [1] is given as 59.5 (18) μM; in data set [2] it was 53.6 (16) μM; in data set [3], 41.3 (16) μM; in data set [4], 143 (38) μM; in data set [5] it was 90.6 (23) μM; in data set [6], 32.9 (5.5) μM. The kcat – broadly, the number of substrate molecules converted per active site and unit of time at saturation – was determined as 84.2 s⁻¹ in data set [1]; 11.7 s⁻¹ in data set [2]; 34 s⁻¹ in data set [3]; 3.57 s⁻¹ in data set [4]; 65.8 s⁻¹ in data set [5]; 42.9 s⁻¹ in data set [6]. For the same substance, the kcat/Km (usually the second-order rate constant that governs catalysis at low substrate concentration) worked out at 1.41e+06 M⁻¹ s⁻¹ in data set [1]; 218000 M⁻¹ s⁻¹ in data set [2]; 823000 M⁻¹ s⁻¹ in data set [3]; 25100 M⁻¹ s⁻¹ in data set [4]; 730000 M⁻¹ s⁻¹ in data set [5]; 1.3e+06 M⁻¹ s⁻¹ in data set [6].
